Measurements reported in publication PMC3296934 (Frontiers in Molecular Neuroscience, 2012).
Each block holds one binder with its values, some of them ahead of it.

Molecular target: calmodulin (bovine, UniProt P62157 1-149)
Experiment: SPR

Kd: 63 µM
B1: GST fusion of the RK amino terminal region (N-RK: M1-G183) (domain or fragment)
chain: MDFGSLETVVANSAFIAARGSFDASSGPASRDRKYLARLKLPPLSKCEALRESLDLGFEGMCLEQPIGKRLFQQFLRTHEQHGPALQLWKDIEDYDTADDALRPQKAQALRAAYLEPQAQLFCSFLDAETVARARAGAGDGLFQPLLRAVLAHLGQAPFQEFLDSLYFLRFLQWKWLEAQPMG

Kd: 17 µM
B2: GST-RK fragment F125-K175 (domain or fragment)
chain: FLDAETVARARAGAGDGLFQPLLRAVLAHLGQAPFQEFLDSLYFLRFLQWK

Kd: 23 µM
B3: GST-RK fragment L102-G183 (domain or fragment)
chain: LRPQKAQALRAAYLEPQAQLFCSFLDAETVARARAGAGDGLFQPLLRAVLAHLGQAPFQEFLDSLYFLRFLQWKWLEAQPMG

Kd: 54 µM
B4: GST-RK fragment M1-L102 (domain or fragment)
chain: MDFGSLETVVANSAFIAARGSFDASSGPASRDRKYLARLKLPPLSKCEALRESLDLGFEGMCLEQPIGKRLFQQFLRTHEQHGPALQLWKDIEDYDTADDAL
